The numbers were not newly measured in paper PMC6769837, which cites them from elsewhere.

For orientation: pKd means −log10 of the Kd, conventionally taken in molar units.

The target in data set [1] is integrin αvβ3 (Homo sapiens) (UniProt P06756).
The target of data set [2] is integrin αvβ6 (Homo sapiens) (UniProt P06756).
Data set [3] addresses integrin αvβ8 (Homo sapiens) (UniProt P06756).

pKd: −log10 of the molar value.

As to LAP-TGFβ1 LAP (from UniProt P01137), the figures for the pKd in data set [1], in data set [2] and in data set [3] were 5.07, 7.99 and 10.89, respectively.
